Target: LTBP-1 C-terminal region (UniProt Q14766)
Assay: SPR; Biacore; LTBP-1 C-terminal region immobilised by amine coupling on CM5 (methods); 10 mM HEPES pH 7.4, 0.1 M NaCl, 0.5 mM CaCl2, 0.005% P20

Chain of LTBP-1 C-terminal region (Q14766 24-1721): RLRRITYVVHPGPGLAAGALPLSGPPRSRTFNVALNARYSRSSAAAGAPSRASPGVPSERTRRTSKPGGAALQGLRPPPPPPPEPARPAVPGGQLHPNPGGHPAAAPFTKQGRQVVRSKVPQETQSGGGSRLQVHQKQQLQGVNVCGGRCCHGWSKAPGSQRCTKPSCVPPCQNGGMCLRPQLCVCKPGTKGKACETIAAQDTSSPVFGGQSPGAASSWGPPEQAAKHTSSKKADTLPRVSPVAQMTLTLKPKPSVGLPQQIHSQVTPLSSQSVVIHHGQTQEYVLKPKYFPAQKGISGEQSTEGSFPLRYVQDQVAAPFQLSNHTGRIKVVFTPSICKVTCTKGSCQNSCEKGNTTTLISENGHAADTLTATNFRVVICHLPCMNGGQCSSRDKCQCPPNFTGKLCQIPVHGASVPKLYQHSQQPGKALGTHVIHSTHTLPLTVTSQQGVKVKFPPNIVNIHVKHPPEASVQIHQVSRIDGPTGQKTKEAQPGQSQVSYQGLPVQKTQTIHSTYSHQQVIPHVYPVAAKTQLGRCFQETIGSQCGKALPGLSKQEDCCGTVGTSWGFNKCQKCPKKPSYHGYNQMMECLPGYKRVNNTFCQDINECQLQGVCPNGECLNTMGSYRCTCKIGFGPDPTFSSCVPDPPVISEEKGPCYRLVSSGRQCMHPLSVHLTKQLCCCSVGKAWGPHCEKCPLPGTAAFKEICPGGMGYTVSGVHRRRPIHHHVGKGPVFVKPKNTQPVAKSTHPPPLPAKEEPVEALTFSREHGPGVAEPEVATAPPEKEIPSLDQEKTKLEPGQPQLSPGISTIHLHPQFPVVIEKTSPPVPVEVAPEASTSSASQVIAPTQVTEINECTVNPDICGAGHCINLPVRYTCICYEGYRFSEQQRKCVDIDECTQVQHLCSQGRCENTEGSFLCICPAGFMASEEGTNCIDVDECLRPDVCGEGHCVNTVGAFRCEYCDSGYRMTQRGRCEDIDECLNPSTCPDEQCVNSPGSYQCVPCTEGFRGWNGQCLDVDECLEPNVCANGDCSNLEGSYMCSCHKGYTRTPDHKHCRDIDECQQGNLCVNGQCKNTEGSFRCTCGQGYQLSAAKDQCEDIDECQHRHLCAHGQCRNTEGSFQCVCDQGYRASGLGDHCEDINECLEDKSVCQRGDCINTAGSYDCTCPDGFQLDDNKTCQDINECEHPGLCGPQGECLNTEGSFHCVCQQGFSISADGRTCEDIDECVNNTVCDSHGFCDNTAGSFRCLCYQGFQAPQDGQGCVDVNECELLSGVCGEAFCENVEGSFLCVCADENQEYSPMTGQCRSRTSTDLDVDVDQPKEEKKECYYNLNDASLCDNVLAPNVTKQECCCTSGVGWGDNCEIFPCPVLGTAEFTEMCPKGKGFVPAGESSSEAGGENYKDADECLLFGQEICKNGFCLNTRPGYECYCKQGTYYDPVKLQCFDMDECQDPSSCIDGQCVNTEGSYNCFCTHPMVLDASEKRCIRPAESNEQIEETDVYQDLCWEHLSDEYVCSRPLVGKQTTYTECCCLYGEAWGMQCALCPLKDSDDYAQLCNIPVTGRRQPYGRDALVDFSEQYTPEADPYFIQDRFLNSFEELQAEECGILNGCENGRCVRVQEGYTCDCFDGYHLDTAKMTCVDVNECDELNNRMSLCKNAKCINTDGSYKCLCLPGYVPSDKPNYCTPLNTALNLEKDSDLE

B1: ADAMTS6 C-terminal region (domain or fragment)
chain: DGGWGPWSLWGECSRTCGGGVSSSLRHCDSPAPSGGGKYCLGERKRYRSCNTDPCPLGSRDFREKQCADFDNMPFRGKYYNWKPYTGGGVKPCALNCLAEGYNFYTERAPAVIDGTQCNADSLDICINGECKHVGCDNILGSDAREDRCRVCGGDGSTCDAIEGFFNDSLPRGGYMEVVQIPRGSVHIEVREVAMSKNYIALKSEGDDYYINGAWTIDWPRKFDVAGTAFHYKRPTDEPESLEALGPTSENLIVMVLLQEQNLGIRYKFNVPITRTGSGDNEVGFTWNHQPWSECSATCAGGVQRQEVVCKRLDDNSIVQNNYCDPDSKPPENQRACNTEPCPPEWFIGDWLECSKTCDGGMRTRAVLCIRKIGPSEEETLDYSGCLTHRPVEKEPCNNQSCPPQWVALDWSECTPKCGPGFKHRIVLCKSSDLSKTFPAAQCPEESKPPVRIRCSLGRCPPPRWVTGDWGQCSAQCGLGQQMRTVQCLSYTGQASSDCLETVRPPSMQQCESKCDSTPISNTEECKDVNKVAYCPLVLKFKFCSRAYFRQMCCKTCQGH
Kd: 59 nM

Source: publication PMC5078793
